Assay results reported in patent US20210347908A1 (ELPISCIENCE SUZHOU BIOPHARMA, published 2021).
Positions count from the first letter of the chain named.

T1: 6×His tagged C57BL/6 mouse SIRPα ECD recombinant protein (mouse (C57BL/6), UniProt P97797 32-373)
T1 construct: extracellular domain; bought; also called mSIRPα (C57BL/6); mouse SIRPα (C57BL/6) ECD
T1 sequence: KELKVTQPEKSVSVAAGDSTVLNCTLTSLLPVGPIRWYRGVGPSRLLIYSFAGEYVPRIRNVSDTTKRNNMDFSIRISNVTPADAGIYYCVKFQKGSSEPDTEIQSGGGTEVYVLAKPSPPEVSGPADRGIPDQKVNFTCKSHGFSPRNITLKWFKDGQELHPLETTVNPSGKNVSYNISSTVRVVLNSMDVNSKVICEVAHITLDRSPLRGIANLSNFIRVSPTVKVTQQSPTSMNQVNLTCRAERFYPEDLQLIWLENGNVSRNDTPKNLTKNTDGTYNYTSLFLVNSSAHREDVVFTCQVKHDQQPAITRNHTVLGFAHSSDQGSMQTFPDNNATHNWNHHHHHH

B1: Antibody 074 (hybridoma antibody) (antibody, V domains shown)
VH: QVQLQQPRAELVKPGASVMLSCKASGYTFSSYWIHWVRQGPGQGLEWIGLIHPNSGNTDCSETFKNKATLTVDTSSSTAYMQLSSLASEDSAVYYCARDGASYDWFVHWGQGTLVTVSA
VL: not shown
notes: mouse hybridoma antibody
B2: reference antibody KWAR23 (antibody, V domains shown)
VH: EVQLQQSGAELVKPGASVKLSCTASGFNIKDYYIHWVQQRTEQGLEWIGRIDPEDGETKYAPKFQDKATITADTSSNTAYLHLSSLTSEDTAVYYCARWGAYWGQGTLVTVSS
VL: QIVLTQSPAIMSASPGEKVTLTCSASSSVSSSYLYWYQQKPGSSPKLWIYSTSNLASGVPARFSGSGSGTSYSLTISSMEAEDAASYFCHQWSSYPRTFGAGTKLELK
B3: Antibody 050 (hybridoma antibody) (antibody, V domains shown)
VH: QIQLVQSGPELKKPGETVKISCKASGYTFTHYSMHWVKQAPGKGLKWMGWINTETAEPTYVDDFKGRFAFSLEASASTAFFQINNLKNEDTATYFCARGGLRQGDYWGQGTTLTVSS
VL: B2 VL with A9P, S26T, S31A, Y37F, S78N, A81P, E82A, R97Y, A101G, L107I
notes: mouse hybridoma antibody
B4: Antibody 022 (hybridoma antibody) (antibody, V domains shown)
VH: QIQLVQSGPELKKPGETVKISCKASGYTFTDYAMHWVKQAPGKGLKWMGWKNTETGESTYAEDFKGRFAFFLETSASTAYLQINNVKNEDTATYFCARGGYGSNYVMDYWGQGTSVIVSS
VL: DIQMTQSSSSFSVSLGDRVTITCKASEDIYNRLAWYQQKPGNAPRLLISGATSLETGVPSRFSGSGSGKDYTLSITSLQTEDVATYYCQQYWNSPRTFGGGTKLEIK
notes: mouse hybridoma antibody
B5: reference antibody 29-AM4-5 (antibody, V domains shown)
VH: EVQLVESGGGLVQPGGSLRLSCAASGFNISYYFIHWVRQAPGKGLEWVASVYSSFGYTYYADSVKGRFTISADTSKNTAYLQMNSLRAEDTAVYYCARFTFPGLFDGFFGAYLGSLDYWGQGTLVTVSS
VL: DIQMTQSPSSLSASVGDRVTITCRASQSVSSAVAWYQQKPGKAPKLLIYSASSLYSGVPSRFSGSRSGTDFTLTISSLQPEDFATYYCQQAVNWVGALVTFGQGTKVEIK
B6: chimeric antibody 055c (antibody, V domains shown)
VH: EVKLVESEGGLVQPGDSMKLSCTASGFTFSDYFMTWIRQVPEKGLEWIANVNYDGRSTYYLDSLKSRFIISRDNANNILYLQMSSLKSEDTATYYCAREGSQTPLYAVDYWGQGTSVTVSS
VL: DIVMTQSQKFMSTTVGDRVNITCKASQNVGTAVAWYQQKPGQSPKLLIYLASNRYTGVPDRFTGSGSGTDFTLTVSDMRSEDLADYFCQQYSIYPFTFGSGTKLEIK
B7: chimeric antibody 001c (antibody, V domains shown)
VH: EVKLEESGGGLVQPGGSMKLSCVASGFTFRNYWMNWVRQSPERGLEWIAEISLKSNTYATHYAESVKGRFAISRDGSKSSFYLQMNDLRAEDTGIYYCTTFTKVVADWHLDVWGAGTTVTVSS
VL: DVLMTQTPLSLPVSLGDQASISCRSSQNIVHSNGNTYLEWYLQKPGQSPKLLIYKVSNRFSGVPDRFSGSGSGTDFTLRISRVEAEDLGVYYCFQGSHVPFTFGSGTKLEIK
B8: chimeric antibody 032c (antibody, V domains shown)
VH: B7 VH with K3R, A24V, S52T, G76D, A90P
VL: B7 VL with S14N
B9: chimeric antibody 060c (antibody, V domains shown)
VH: QVQLKESGPGLVAPSESLSITCTVSGFSLTNYDISWIRQSPGKGLEWLGVIWTGGDTNFNSAFMSRLSISKDKSKSQVFLKLNSLQTDDTAIYYCVRVQYFGGSYGPMDYWGQGISVTVSS
VL: DIQMTQASSYLSVSLGGRVTITCEASDHINDWLAWYQQTPGNAPRLLISGATSLETGVPSRFSGSGSGKDYTLSITSLQTEDIATYYCQQYWNTPLTFGAGTRLELK

What follows are binders tested against T2, biotin labeled soluble human SIRPα v1 ECD recombinant protein (human, UniProt P78324 31-373, biotin labeled) (assay: competitive ELISA; competitor 001).
T2 construct: extracellular domain
Procedure: (§1) Competitive ELISA assay was used for epitope binning of 9 functional antibodies. Briefly excessive competitor antibody and biotin labeled soluble human SIRPα v1 ECD recombinant protein were co-incubated with ELISA microplate coated antibody. After washing, HRP-SA was added and incubated at 37° C. for 1 hour. Then, […] of TMB solution (Biotechnology) was added. After incubation for 15 minutes at room temperature, the reaction was stopped by the addition of […] of 1N HCl. OD 450 nm was read. Competition ratio was calculated. The antibodies that can compete each other for binding to SIRPα have the similar binding epitope.

Binder	% Competition [%]
B1	33
B2	85
B3	2
B4	2
B5	97

These binders were tested against T2, biotin labeled soluble human SIRPα v1 … (assay: competitive ELISA; competitor HEFLB).
Procedure: as §1

Binder	% Competition [%]
B1	-14
B2	27
B3	-14
B4	1
B5	25

The binders below were run against T2, biotin labeled soluble human SIRPα v1 … (assay: competitive ELISA; competitor 022).
Procedure: as §1

Binder	% Competition [%]
B1	-5
B2	6
B3	79
B4	81
B5	8

The binders below were run against T2, biotin labeled soluble human SIRPα v1 … (assay: competitive ELISA; competitor 074).
Procedure: as §1

Binder	% Competition [%]
B1	92
B2	1
B3	2
B4	-1
B5	4

Each binder was assayed against T3, Fc tagged human SIRPα v2 ECD recombinant protein (human) (assay: ELISA).
T3 construct: range 1-369; cloned range M1-R369 includes the signal peptide; also called hSIRPα V2
Procedure, shortened: (§2)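 Coated antigen + antibody, 37° C. 1 h; wash; HRP anti-mouse or anti-human IgG, 37° C. 1 h; TMB 15 min RT; stop 1N HCl; OD450; EC₅₀.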

Binder	EC50 [nM]
B2	0.09
B6	0.11
B7	0.09
B8	0.11
B5	0.08

These binders were tested against T4, Fc tagged human SIRPβ ECD recombinant protein (human, UniProt O00241 30-371) (assay: ELISA).
T4 construct: range 1-371; cloned range includes the signal peptide; also called hSIRPβ; not shown: human IgG Fc region (hFc) of the pCPC vector
Procedure, shortened: as §2

Binder	EC50 [nM]
B9	0.24
B2	0.08
B7	0.12
B8	0.12
B5	0.08

Target: T3, Fc tagged human SIRPα v2 ECD …
Assay: ELISA
Remark: another data set of the same source
Procedure: (§3) Binding specificity of the purified hybridoma antibodies against SIRP family members was detected by ELISA assay using recombinant proteins of Fc tagged human SIRPα v1 ECD, human SIRPα v2 ECD, human SIRPβ ECD and human SIRPγ ECD. Briefly the antibodies were incubated with ELISA microplate coated antigens at 37° C. for 1 hour. After washing, horseradish peroxidase (HRP) labeled anti-mouse or anti-human IgG 2nd Ab (Sigma) was added and incubated at 37° C. for 1 hour. Then, 100 μl/well of TMB solution (Biotechnology) was added. After incubation for 15 minutes at room temperature, the reaction was stopped by the addition of 50 μl of 1N HCl. OD 450 nm was read and EC₅₀ was calculated. Other than 060 and HEFLB, all of the antibodies as tested can bind with both human SIRPα v1 and SIRPα v2. 060 and HEFLB can bind with human SIRPα v1 but not v2. Other than 055, all of the antibodies as tested can bind with human SIRPβ. In comparison with other known anti-SIRPα antibodies, only 022, 035 and 050 can bind with human SIRPγ weakly.

Binder	EC50 [nM]
B1	0.02
B2	0.22
B3	0.08
B4	0.04
B5	0.2

These binders were tested against T5, Fc tagged human SIRPα v1 ECD recombinant protein (human, UniProt P78324 31-370) (assay: ELISA).
T5 construct: range 1-370; cloned range M1-R370 includes the signal peptide; also called hSIRPα V1; not shown: human IgG Fc region (hFc) of the pCPC vector
Procedure: as §3

Binder	EC50 [nM]
B1	0.02
B2	0.17
B3	0.08
B4	0.04
B5	0.15

Target: T4, Fc tagged human SIRPβ ECD recombinant …
Assay: ELISA
Remark: another data set of the same source
Procedure: as §3

Binder	EC50 [nM]
B1	0.02
B2	0.18
B3	0.11
B4	0.03
B5	0.21

Each binder was assayed against T6, 6×His tagged human SIRPα v1 ECD recombinant protein (human, UniProt P78324 31-373) (assay: SPR (Biacore)).
T6 construct: extracellular domain; bought; also called hSIRPα V1 (SPR antigen)
Procedure: (§4) Anti-SIRPα chimeric antibodies were characterized for binding affinity against human SIRPα v1, human SIRPα v2 and C57BL/6 mouse SIRPα using Biacore (GE). Briefly the antibodies to be tested were captured to CM5 chip (GE) using Human Antibody Capture Kit (GE). The antigens of 6×His tagged human SIRPα v1, human SIRPα v2 and C57BL/6 mouse SIRPα ECD recombinant proteins were serially diluted for multiple doses and injected at 30 μl/min for 180 s. Buffer flow was maintained for dissociation of 400 s. 3 M MgCl₂ was used for chip regeneration. The association and dissociation curves were fit with 1:1 binding model, and the Ka/Kd/KD values for each antibody were calculated.

Binder	Kd [nM]
B9	1.49
B2	2.66
B6	16.6
B7	11.4
B8	8.92

These binders were tested against T7, 6×His tagged human SIRPα v2 ECD recombinant protein (human) (assay: SPR (Biacore)).
Procedure: as §4

Binder	Kd [nM]
B2	14.7
B6	28.5
B7	20.6
B8	14.7

What follows are binders tested against T6, 6×His tagged human SIRPα v1 ECD … (assay: SPR (Biacore), antibody captured).
Procedure: as §4

Binder	Kd [nM]	koff [s⁻¹]	kon [M⁻¹ s⁻¹]
B9	1.49	0.000141	94400
B6	16.6	0.00141	85100
B7	11.4	0.000855	74900
B8	8.92	0.000834	93500

These binders were tested against T1, 6×His tagged C57BL/6 mouse SIRPα ECD … (assay: SPR (Biacore), antibody captured).
Procedure: as §4

Binder	binding result
B9	no binding
B6	no binding
B7	no binding

Each binder was assayed against T7, 6×His tagged human SIRPα v2 ECD … (assay: SPR (Biacore), antibody captured).
Procedure: as §4

Binder	Kd [nM]	koff [s⁻¹]	kon [M⁻¹ s⁻¹]
B6	28.5	0.00138	48300
B7	20.6	0.000816	39700
B8	14.7	0.000774	52600

The binders below were run against T2, biotin labeled soluble human SIRPα v1 … (assay: competitive ELISA; competitor 035).
Procedure: as §1

Binder	% Competition [%]
B1	10
B2	4
B3	-4
B4	0
B5	98
